Measured values published in publication PMC5880276.

Molecular target: HpiC1
Assay: crystal structure

- stoichiometry N: 2
Substance: HpiC1 (enzyme)
